Data on one molecule can be found in article doi:10.1101/2025.10.21.683800 (bioRxiv, 2025).

Experiment [1] has as its target T1, MBP-FLAG-PPP1CC-His (human, UniProt P36873 1-323). As to the kind of experiment: ITC. (In general: Isothermal titration calorimetry measures the heat released or taken up as one component is titrated into another.)
Experiment [2] has as its target T1, MBP-FLAG-PPP1CC-His. The experiment is described as follows: ITC. This is another data set of the same source.

Like-named read-outs stand apart in the source and are kept apart here.

T1 sequence (P36873 whole entry): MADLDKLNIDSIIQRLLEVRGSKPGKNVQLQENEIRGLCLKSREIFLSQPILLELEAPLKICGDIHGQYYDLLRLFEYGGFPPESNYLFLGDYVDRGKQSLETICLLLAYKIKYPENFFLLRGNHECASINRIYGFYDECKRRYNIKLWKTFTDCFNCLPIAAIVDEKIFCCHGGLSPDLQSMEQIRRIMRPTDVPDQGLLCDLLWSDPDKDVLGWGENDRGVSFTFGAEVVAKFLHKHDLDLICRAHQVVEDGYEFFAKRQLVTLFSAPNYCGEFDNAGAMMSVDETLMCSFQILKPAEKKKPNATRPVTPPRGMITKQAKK

B1: recombinant PPP1R2 (natural protein)
chain: MAASTASHRPIKGILKNKTSTTSSMVASAEQPRGNVDEELSKKSQKWDEMNILATYHPADKDYGLMKIDEPSTPYHSMMGDDEDACSDTEATEAMAPDILARKLAAAEGLEPKYRIQEQESSGEEDSDLSPEEREKKRQFEMKRKLHYNEGLNIKLARQLISKDLHDDDEDEEMLETADGESMNTEESNQGSTPSDQQQNKLRSS
One may read the Kd as the equilibrium constant for the complex coming apart. A low value points to a tighter complex. For B1, the Kd with MBP-FLAG-PPP1CC-His [1] was 3590 nM; with MBP-FLAG-PPP1CC-His [2] it was 1130 nM.
